Patent US20210163599A1

What was measured:
[1] = target: huPD-L1-Fc (R&D Systems) (human) (UniProt Q9NZQ7); test: Biacore, ligand rhPD-L1-Fc, Affimer as analyte
[2] = target: huPD-L1-Fc (R&D Systems) (human) (UniProt Q9NZQ7); test: competition ELISA: hu CD80-Fc coated, 1.6 nM huPD-L1-Fc preincubated with the antibody
[3] = target: huPD-L1-Fc (R&D Systems) (human) (UniProt Q9NZQ7); test: competition ELISA: hu PD-1-Fc coated, huPD-L1-Fc preincubated with the antibody

Chain of huPD-L1-Fc (R&D Systems) (human) (Q9NZQ7 19-239 limits assumed): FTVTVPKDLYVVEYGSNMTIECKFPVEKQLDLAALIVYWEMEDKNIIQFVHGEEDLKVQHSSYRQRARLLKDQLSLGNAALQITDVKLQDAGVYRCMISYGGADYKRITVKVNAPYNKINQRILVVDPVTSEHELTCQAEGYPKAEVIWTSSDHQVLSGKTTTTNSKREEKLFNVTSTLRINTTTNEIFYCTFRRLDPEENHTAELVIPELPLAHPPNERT

Binder | koff [1] | kon [1] | IC50 [2] | IC50 [3]
AVA04-251 BH (designed binder, from a related filing) MIPRGLSEAKPATPEIQEIVDKVKPQLEEKTNETYGKLEAVQYKTQVLAREGRQDWVLSTNYYIKVRAGDNKYMHLKVFNGPWVPFPHQQLADRVLTGYQVDKNKDDELTGFAEAAAKEAAAKEAAAKEAAAKEAAAKEAAAKMIPRGLSEAKPATPEIQEIVDKVKPQLEEKTNETYGKLEAVQYKTQVLAREGRQDWVLSTNYYIKVRAGDNKYMHLKVFNGPWVPFPHQQLADRVLTGYQVDKNKDDELTGFHHHHHH | 0.00129 s⁻¹ | 752000 M⁻¹ s⁻¹ |  | 
mAb anti huPD-L1 29E.2A3 (Biolegend) (antibody, from another filing, V domains shown) VH: EVQLQQSGPELVKPGASVKMSCKASGYTFTSYVMHWVKQKPGQGLEWIGYVNPFNDGTKYNEMFKGKATLTSDKSSSTAYMELSSLTSEDSAVYYCARQAWGYPWGQGTLVTVSA VL: DIVLTQSPASLAVSLGQRATISCRATESVEYYGTSLVQWYQQKPGQPPKLLIYAASSVDSGVPARFSGSGSGTDFSLTIHPVEEDDIAMYFCQQSRRVPYTFGGGTKLEIK |  |  | 0.31 nM | 0.18 nM
